Values quoted from earlier work, collected in paper PMC7212196.

Target: soluble IL-6 receptor (Homo sapiens) (UniProt P08887)
UniProt P08887, sequence (P08887 20-355): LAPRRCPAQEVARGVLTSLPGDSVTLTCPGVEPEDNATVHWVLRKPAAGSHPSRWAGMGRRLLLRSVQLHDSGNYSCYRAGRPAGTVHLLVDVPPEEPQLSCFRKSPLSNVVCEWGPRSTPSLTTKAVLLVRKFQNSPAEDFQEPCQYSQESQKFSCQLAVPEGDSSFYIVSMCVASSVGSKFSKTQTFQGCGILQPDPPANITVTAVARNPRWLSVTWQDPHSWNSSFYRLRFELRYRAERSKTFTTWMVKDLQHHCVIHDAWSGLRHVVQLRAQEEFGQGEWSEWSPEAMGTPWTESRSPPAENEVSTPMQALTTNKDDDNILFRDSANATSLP

IL-6, sequence (P05231 30-212): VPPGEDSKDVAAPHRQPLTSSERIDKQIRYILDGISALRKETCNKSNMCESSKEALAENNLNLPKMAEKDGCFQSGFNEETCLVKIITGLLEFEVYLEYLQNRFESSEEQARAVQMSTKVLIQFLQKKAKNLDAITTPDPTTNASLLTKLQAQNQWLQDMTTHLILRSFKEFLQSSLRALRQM

IL-6 (from UniProt P05231)
Kd: 5 nM
